These results are taken from publication PMC5923229, “The cysteine-reactive small molecule ebselen facilitates effective SOD1 maturation” (Nature Communications, 2018).

To fix the notation:
B2: copper chaperone for SOD1 (hCCS), wild-type (natural protein, UniProt O14618 1-274, looked up)
chain: MASDSGNQGTLCTLEFAVQMTCQSCVDAVRKSLQGVAGVQDVEVHLEDQMVLVHTTLPSQEVQALLEGTGRQAVLKGMGSGQLQNLGAAVAILGGPGTVQGVVRFLQLTPERCLIEGTIDGLEPGLHGLHVHQYGDLTNNCNSCGNHFNPDGASHGGPQDSDRHRGDLGNVRADADGRAIFRMEDEQLKVWDVIGRSLIIDEGEDDLGRGGHPLSKITGNSGERLACGIIARSAGLFQNPKQICSCDGLTIWEERGRPIAGKGRKESAQPPAHL
notes: copper chaperone for SOD1 (hCCS), wild type; Desalted into ligand-free, nitrogen-purged buffer

The target of data set [1] is B2. The data set can be described thus: SEC; C57A/C146A SOD1 with or without ebselen (25 uM SOD1, 100 uM ebselen, 3 h, 20 C) and hCCS; complex formed with 250 pmol of both SOD1 and hCCS. To be noted: both partners purified. A general note: Size exclusion chromatography separates by hydrodynamic size, large species first.
Data set [2] concerns the molecule itself. The description is as above.

B1: artificial disulphide knockout SOD1 mutant C57A/C146A (enzyme)
chain: not shown
notes: superoxide dismutase-1 (SOD1), C57A/C146A; also called ebselen-free SOD1; source: E. coli BL21 (DE3), purified (diethylaminoethyl cellulose); treated with DMSO
Regarding B1, the binding result in data set [1] is listed as “binds”.

In general, stoichiometry N refers to a count of units in the complex or per binding partner. As to B2, the “stoichiometry N” value in data set [2] amounted to 2.
